Experimental data published in patent US20150132307A1 (Hoffmann-La Roche, published 2015).
Positions count from the first letter of the chain named. Values belong to the binder of their own block, whether it stands above or below them.

What was measured:
[1] = target: T1, human Flag-tagged soluble TWEAK (amino acids 106-249) (human, UniProt O43508 106-249); experiment: receptor interaction ELISA: Flag-TWEAK 2.5 ng/ml preincubated with antibody, then on coated human Fn14:Fc (competitor m21)
T1 construct: The sentence gives amino acids 106-249 without naming the entry; also called Human TWEAK; not shown: Flag tag
T1 sequence: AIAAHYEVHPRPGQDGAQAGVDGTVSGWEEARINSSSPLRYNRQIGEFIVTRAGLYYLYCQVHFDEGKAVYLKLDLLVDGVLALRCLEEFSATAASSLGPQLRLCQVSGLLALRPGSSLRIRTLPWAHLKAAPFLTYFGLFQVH
Method: (§1) 96-well Maxisorp® plates (Nunc) were coated with 100 μl 1 μg/ml human Fn14:Fc (extracellular domain of human Fn14 (amino acids 1-75 of SEQ ID NO: 98) fused to Fc portion of human IgG1) in PBS per well for 1.5 h at room temperature and blocked with a solution of 5% FBS in PBS for 30 minutes at room temperature under shaking. […] After washing the Fn14-coated plate once with wash buffer (0.1% Tween® 20 in PBS), 100 μl of the TWEAK-antibody solution were transferred to each well and the plate was incubated for 1 h at room temperature, followed by four washes with wash buffer. Wells were filled with 100 μl of anti-FLAG-HRP detection antibody, diluted 1:5000 in blocking buffer, and incubated for 1 h at room temperature. After four more wash steps, the signal was developed by addition of 100 μl 3,3,5,5-Tetramethylbenzidine (TMB) solution for approximately ten minutes. The reaction was stopped by adding 100 μl of 1 N HCl, and absorbance measured at 450 nm (reference wavelength 620 nm).

[2] = target: T2, Biotinylated human soluble TWEAK (amino acids 99-249 of SEQ ID NO: 68) (human, UniProt O43508 99-249, biotinylated); experiment: SPR (Biacore 2000), biotinylated soluble TWEAK on streptavidin chip, antibody 100 nM as analyte, 25 C
T2 construct: also called Human TWEAK
T2 sequence: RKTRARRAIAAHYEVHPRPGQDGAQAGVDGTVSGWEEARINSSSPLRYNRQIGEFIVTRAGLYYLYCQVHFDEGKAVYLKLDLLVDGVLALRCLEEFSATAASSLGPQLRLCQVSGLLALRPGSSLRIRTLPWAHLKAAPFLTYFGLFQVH
Method: (§2) A Biacore 2000 instrument was used with a Biacore streptavidin coated sensor mounted into the system. The system buffer HBS-ET (10 mM HEPES pH 7.4, 150 mM NaCl, 1 mM EDTA, 0.05% Tween® 20) was used at a flow rate of 100 μl/min. The sample buffer was the system buffer. Biotinylated human soluble TWEAK (amino acids 99-249 of SEQ ID NO: 68) and biotinylated murine soluble TWEAK (amino acids 81-225 of SEQ ID NO: 69) was immobilized on different flow cells on the SA sensor at 150 RU each. The flow cell FC1 was used as a blank reference cell. Each antibody was injected into the system as an analyte at 100 nM at 100 μl/min for 2 min association time. The dissociation of the immunecomplexes were monitored for 5 min. The sensor surface was washed with HBS-ET for 10 seconds and regenerated using 2×2 minutes injections with 10 mM glycine pH 2.25. This procedure was done at 25° C. The kinetically rate limiting step of the complex dissociation phase in the interval [240 s-300 s] was taken to calculate the dissociation rate kd [1/s] (Biacore Evaluation Software 4.0). According to the equation t1/2 diss=ln(2)/(60×kd), the half-life of the immunocomplexes in minutes was calculated.

[3] = target: T3, Human recombinant soluble TWEAK (Example 6) (human, UniProt O43508 99-249, limits assumed); experiment: cell-based or functional assay
T3 sequence: T2 sequence

[4] = target: T3, Human recombinant soluble TWEAK …; experiment: cell-based or functional assay; remark: listed apart in the source
[5] = target: T2, Biotinylated human soluble TWEAK (amino …); experiment: SPR (Biacore), biotinylated soluble TWEAK on streptavidin chip, 25 C
Method: as §2

[6] = target: T4, Mouse soluble TWEAK (untagged, Example 5) (mouse, UniProt O54907 105-249, limits assumed); experiment: receptor interaction ELISA: mouse soluble TWEAK preincubated with antibody, then on coated mouse Fn14:Fc (competitor m22)
T4 construct: also called Murine TWEAK
T4 sequence: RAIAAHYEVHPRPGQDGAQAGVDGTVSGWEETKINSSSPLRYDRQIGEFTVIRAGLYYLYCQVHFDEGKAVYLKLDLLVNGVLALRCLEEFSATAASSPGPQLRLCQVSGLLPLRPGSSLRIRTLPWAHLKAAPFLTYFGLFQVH
Method: Briefly, Maxisorp plates were coated with mouse Fn14:Fc (extracellular domain of mouse Fn14 (amino acids 1-75 of SEQ ID NO: 98) fused to Fc portion of human IgG1) as described above for human Fn14:Fc, followed by blocking and washing. […] After 1 h of incubation at room temperature and four washes, biotinylated anti-mouse TWEAK antibody at 125 ng/ml in blocking buffer was added for 1 h at room temperature, followed by another four wash steps. The TWEAK antibody was detected by incubation with streptavidin-HRP, diluted 1:5000 in blocking buffer, for 30 minutes at room temperature. Signal was developed and absorbance measured as described above.

[7] = target: T1, human Flag-tagged soluble TWEAK (amino …); experiment: receptor interaction ELISA: Flag-TWEAK preincubated with antibody, then on coated human Fn14:Fc (competitor m21)
Method: as §1

[8] = target: T2, Biotinylated human soluble TWEAK (amino …); experiment: SPR (Biacore), biotinylated soluble TWEAK on streptavidin chip, 37 C
[9] = target: recombinant human IL-17 (Peprotech #200-17) (human, UniProt Q16552 20-155); experiment: cell-based or functional assay
recombinant human IL-17 (Peprotech #200-17), sequence (Q16552 20-155 limits assumed): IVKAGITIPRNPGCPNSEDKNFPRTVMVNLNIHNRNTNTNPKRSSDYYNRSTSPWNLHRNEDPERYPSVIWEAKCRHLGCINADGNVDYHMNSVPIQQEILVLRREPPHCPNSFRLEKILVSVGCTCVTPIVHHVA

[10] = target: T5, Recombinant human TWEAK (R&D Systems; Cat. #1090-TW/CF) (human, UniProt O43508 97-249, limits assumed); experiment: cell-based or functional assay
T5 sequence: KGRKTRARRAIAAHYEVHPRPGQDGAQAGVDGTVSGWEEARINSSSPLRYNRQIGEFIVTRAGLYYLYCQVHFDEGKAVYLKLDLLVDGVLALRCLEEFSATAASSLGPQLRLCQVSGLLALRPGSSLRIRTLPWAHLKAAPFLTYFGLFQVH

IC50 [1]: 2.6 ng/mL
t/2 diss [min] 25° C. [2]: 37 min
Inhibition of IL-8 Secretion IC50 [ng/ml] (A375 cells) [3]: 122 ng/mL
B1: <TWEAK> 304chi (antibody, human IgG1, kappa, V domains shown)
VH: QSLEESGGDLVKPGASLTLTCKASGFSFSSTYYMCWVRQAPGKGLEWIGCIYVGSSGAPYYASWAKGRFTISKTSSTTVALQMTSLTPADTATYVCTRSVHFGDLWGPGTLVTVSS
VL: DVVMTQTPSPVSAAVGGTVTIKCQASQSIGNDLSWYQQKPGQRPKLLIYSVSTLASGVPSRFKGSGSGTEYSLTISDVQCADAATYYCQCIDYGNNYVGNTFGGGTEVVVKR
notes: Chimer: rabbit variable domains with human kappa and human IgG1 constant regions

Inhibition of IL8-Secretion [ng/ml] (A375 cells) [4]: 165 ng/mL
Biacore t/2 diss. [min] 25° C. human [5]: 87 min
IC50 [6]: 6.5 ng/mL
IC50 [7]: 1.5 ng/mL
Biacore t/2 diss. [min] 37° C. human [8]: 115 min
B2: Humanized <TWEAK> 305- antibody 28 (antibody, V domains shown)
VH: EVQLLESGGGLVQPGGSLTLSCAASGFDFSTYYMSWVRQAPGKGLEWVSTVYVRQGTTYYASWLNGRFTISRDNSKNTLYLQMNSLRAEDTAVYYCAKGGYNYDDAFVIWGQGTLVTVSS
VL: DIQMTQSPSSVSASVGDRVTITCQASQNIYSNLAWYQQKPGKAPKLLIYTASYLASGVPSRFSGSGSGTDYTLTISSLQPEDFATYYCQTAYYNSRPDTVAFGGGTKVEIK

Inhibition of IL8-Secretion [ng/ml] (A375 cells) [4]: 94 ng/mL
Biacore t/2 diss. [min] 25° C. human [5]: 115 min
IC50 [6]: 7.1 ng/mL
IC50 [7]: 1.7 ng/mL
Biacore t/2 diss. [min] 37° C. human [8]: 151 min
B3: Humanized <TWEAK> 305- antibody 31 (antibody, V domains shown)
VH: B2 VH
VL: B2 VL with D1A, Q3R, V11F, V15T, S77C, P80S

Inhibition of IL8-Secretion [ng/ml] (A375 cells) [4]: 78 ng/mL
Biacore t/2 diss. [min] 25° C. human [5]: 146 min
IC50 [6]: 5.7 ng/mL
IC50 [7]: 1.8 ng/mL
Biacore t/2 diss. [min] 37° C. human [8]: 195 min
B4: Humanized <TWEAK> 305- antibody 29 (antibody, V domains shown)
VH: B2 VH with T19R, Y80D
VL: B2 VL

Inhibition of IL8-Secretion [ng/ml] (A375 cells) [4]: 26 ng/mL
Biacore t/2 diss. [min] 25° C. human [5]: 127 min
IC50 [6]: 6.7 ng/mL
IC50 [7]: 1.7 ng/mL
Biacore t/2 diss. [min] 37° C. human [8]: 99 min
B5: Humanized <TWEAK> 305- antibody 33 (antibody, V domains shown)
VH: QVQLVQSGAEVKKPGSSVKVSCKASGFDFSTYYMSWVRQAPGQGLEWMGTVYVRQGTTYYASWLNGRVTITADESTSTAYMELSSLRSEDTAVYYCARGGYNYDDAFVIWGQGTLVTVSS
VL: B2 VL with D1A, Q3R, V11F, V15T, S77C, P80S

Inhibition of IL8-Secretion [ng/ml] (A375 cells) [4]: 134 ng/mL
Biacore t/2 diss. [min] 25° C. human [5]: 67 min
IC50 [6]: 5.4 ng/mL
IC50 [7]: 1.5 ng/mL
Biacore t/2 diss. [min] 37° C. human [8]: 50 min
B6: Humanized <TWEAK> 305- antibody 32 (antibody, V domains shown)
VH: B2 VH with T19R, Y80D
VL: B2 VL with S10T, V11L, D70E, Y71F, E81D

Inhibition of IL8-Secretion [ng/ml] (A375 cells) [4]: 207 ng/mL
Biacore t/2 diss. [min] 25° C. human [5]: 50 min
IC50 [6]: 7.6 ng/mL
IC50 [7]: 2.3 ng/mL
Biacore t/2 diss. [min] 37° C. human [8]: 45 min
B7: Humanized <TWEAK> 305- antibody 30 (antibody, V domains shown)
VH: B2 VH with T19R, R87T
VL: B2 VL with Y71F

Inhibition of IL8-Secretion [ng/ml] (A375 cells) [4]: 24 ng/mL
Biacore t/2 diss. [min] 25° C. human [5]: 158 min
IC50 [6]: 5.9 ng/mL
IC50 [7]: 1.9 ng/mL
Biacore t/2 diss. [min] 37° C. human [8]: 185 min
B8: Humanized <TWEAK> 305- antibody 34 (antibody, V domains shown)
VH: B2 VH with T19R
VL: B2 VL with D1A, Q3R, V11F, V15T, S77C, P80S

IC50 [1]: 2.5 ng/mL
Inhibition of IL-8 Secretion IC50 [ng/ml] (A375 cells) [3]: 99 ng/mL
B9: <TWEAK> 305 (rabbit) (antibody, V domains shown)
VH: QEQLVESGGGLVQPGGSLTLSCKASGFDFSTYYMSWVRQAPGKGLEWIGTVYVRQGTTYYASWLNGRFTISSDNAQNTVDLKMNSLTAADTATYFCAKGGYNYDDAFVIWGPGTLVTVSF
VL: AIEMTQTPFSVSAAVGGTVTINCQASQNIYSNLAWYQQKPGQPPKLLMYTASYLASGVPSRFKGSGSRTEYTLTISGVQCADAATYYCQTAYYNSRPDTVAFGGGTEVVVK
notes: Rabbit parent antibody

IL-6 IC50 [nM] per valency (IL-17 induced cytokine production, HFLS-RA) [9]: 2.71 nM
IL-8 IC50 [nM] per valency (IL-17 induced cytokine production, HFLS-RA) [9]: 1.71 nM
B10: Bispecific <Tweak-IL-17> #21 antibody (bispecific antibody, human IgG4 S228P, kappa)
heavy 1: EVQLVESGGGLVQPGGSLRLSCAASGFSLDSYGVHWVRQAPGKGLEWVSVIWSDGTTTYNSALKSRFTISRDNSKNTLYLQMNSLRAEDTAVYYCARDTHYRLYYYAMDYWGQGTTVTVSSASTKGPSVFPLAPCSRSTSESTAALGCLVKDYFPEPVTVSWNSGALTSGVHTFPAVLQSSGLYSLSSVVTVPSSSLGTKTYTCNVDHKPSNTKVDKRVESKYGPPCPPCPAPEFEGGPSVFLFPPKPKDTLMISRTPEVTCVVVDVSQEDPEVQFNWYVDGVEVHNAKTKPREEQFNSTYRVVSVLTVLHQDWLNGKEYKCKVSNKGLPSSIEKTISKAKGQPREPQVCTLPPSQEEMTKNQVSLSCAVKGFYPSDIAVEWESNGQPENNYKTTPPVLDSDGSFFLVSRLTVDKSRWQEGNVFSCSVMHEALHNHYTQKSLSLSLGK
heavy 2: not shown
light: DIVMTQSPLSLPVTPGEPASISCRSSQSLVHSNGDTYFHWYLQKPGQSPQLLIYKVSNRFSGVPDRFSGSGSGTDFTLKISRVEAEDVGVYYCSQTTHAPFTFGQGTKLEIKRTVAAPSVFIFPPSDEQLKSGTASVVCLLNNFYPREAKVQWKVDNALQSGNSQESVTEQDSKDSTYSLSSTLTLSKADYEKHKVYACEVTHQGLSSPVTKSFNRGEC

IC50 (nM) per valency, Tweak induced HFLS proliferation (CellTiter Glo) [10]: 0.152 nM
IL-6 IC50 [nM] per valency (IL-17 induced cytokine production, HFLS-RA) [9]: 1.32 nM
IL-8 IC50 [nM] per valency (IL-17 induced cytokine production, HFLS-RA) [9]: 1.12 nM
B11: Bispecific <Tweak-IL-17> #5 antibody (bispecific antibody, human IgG1, kappa)
heavy: not shown
light: DIQMTQSPSSVSASVGDRVTITCQASQNIYSNLAWYQQKPGKAPKLLIYTASYLASGVPSRFSGSGSGTDYTLTISSLQPEDFATYYCQTAYYNSRPDTVAFGGGTKVEIKRTVAAPSVFIFPPSDEQLKSGTASVVCLLNNFYPREAKVQWKVDNALQSGNSQESVTEQDSKDSTYSLSSTLTLSKADYEKHKVYACEVTHQGLSSPVTKSFNRGEC
